How the values were obtained:
[1] = target: Cdc2-AF/CyclinB1 complex, P06493
[2] = target: Cdc2-A14/cyclin B1 complex, P06493
[3] = target: Cdk4/cyclin D1 complex, P11802
[4] = target: Cdc2-F15/CyclinB1 complex, P06493
[5] = target: kinase-deficient Cdc2 mutant (K-) complexed with cyclin B1, P06493
[6] = target: Cdk2/cyclin A complex, P24941
[7] = target: wild-type Cdc2/cyclin B1 complex, P06493
[8] = target: Cdc2/cyclin A complex, P06493
[9] = target: Cdk2/cyclin E complex, P24941

wild-type Cdc2/cyclin B1 complex, P06493, sequence (P06493 whole entry, looked up, one chain of several): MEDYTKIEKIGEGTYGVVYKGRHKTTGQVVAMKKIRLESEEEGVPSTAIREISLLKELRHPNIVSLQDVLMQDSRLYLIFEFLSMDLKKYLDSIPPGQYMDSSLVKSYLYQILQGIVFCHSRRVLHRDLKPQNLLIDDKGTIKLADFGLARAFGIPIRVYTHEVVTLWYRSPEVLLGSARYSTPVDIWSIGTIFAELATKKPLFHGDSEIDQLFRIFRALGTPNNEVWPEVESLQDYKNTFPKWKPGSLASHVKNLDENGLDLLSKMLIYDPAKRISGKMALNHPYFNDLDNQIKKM
kinase-deficient Cdc2 mutant (K-) complexed with cyclin B1, P06493, sequence (P06493 whole entry, looked up, change not shown, one chain of several): as the sequence (P06493 whole entry, looked up, one chain of several) above
Cdk4/cyclin D1 complex, P11802, sequence (P11802 whole entry, looked up, one chain of several): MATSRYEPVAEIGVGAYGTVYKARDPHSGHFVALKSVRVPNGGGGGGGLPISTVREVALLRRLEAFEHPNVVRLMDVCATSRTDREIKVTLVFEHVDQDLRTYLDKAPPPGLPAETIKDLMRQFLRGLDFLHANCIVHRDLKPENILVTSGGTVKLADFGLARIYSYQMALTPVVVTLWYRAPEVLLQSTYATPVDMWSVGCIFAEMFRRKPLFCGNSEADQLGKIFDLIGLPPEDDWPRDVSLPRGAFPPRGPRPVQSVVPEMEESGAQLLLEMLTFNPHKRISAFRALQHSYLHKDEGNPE
Cdc2/cyclin A complex, P06493, sequence (P06493 whole entry, looked up, one chain of several): as the sequence (P06493 whole entry, looked up, one chain of several) above
Cdc2-F15/CyclinB1 complex, P06493, sequence (P06493 whole entry, looked up, one chain of several): as above
Cdc2-AF/CyclinB1 complex, P06493, sequence (P06493 whole entry, looked up, one chain of several): as above
Cdc2-A14/cyclin B1 complex, P06493, sequence (P06493 whole entry, looked up, one chain of several): as above

B1: Cell Growth Regulatory Protein, truncated hybrid protein (residues 1-9 deleted) with N-terminal Glu-Glu tag, expressed in Sf9 cells (protein)
chain: MEYMPMEGTRPEMPMPTEGTPPPLSGTPIPVPAYFRHAEPGFSLKRPRGLSRSLPPPPPAKGSIPISRLFPPRTPGWHQLQPRRVSFRGEASETLQSPGYDPSRPESFFQQSFQRLSRLGHGSYGEVFKVRSKEDGRLYAVKRSMSPFRGPKDRARKLAEVGSHEKVGQHPCCVRLEQAWEEGGILYLQTELCGPSLQQHCEAWGASLPEAQVWGYLRDTLLALAHLHSQGLVHLDVKPANIFLGPRGRCKLGDFGLLVELGTAGAGEVQEGDPRYMAPELLQGSYGTAADVFSLGLTILEVACNMELPHGGEGWQQLRQGYLPPEFTAGLSSELRSVLVMMLEPDPKLRATAEALLALPVLRQPRAWGVLWCMAAEALSRGWALWQALLALLCWLWHGLAHPASWLQPLGPPATPPDSPPCSLLLDSSFSSNWDDDSLGPSLSPEAVLARTVGSTSTPRSRCTPRDALDLSDINSEPPRGSFPSFEPRNLLSMFEDTLDPT
[1]
  32P-labeling in a kinase reaction with affinity purified proteins, SDS-PAGE: the Cdc2-AF mutant was not phosphorylated by Cell Growth Regulatory Protein or Wee1
[2]
  histone H1 kinase activity (Cdc2 kinase activation) in mixed Sf9 lysates: such lysates also inhibited both Cdc2-A14 and Cdc2-F15 activation; Cdc2-A14 lysates consistently retain some histone H1 kinase activity
[3]
  32P-labeling in a kinase reaction with purified proteins: neither Cell Growth Regulatory Protein nor Wee1 phosphorylated the Cdk4 subunit
[4]
  histone H1 kinase activity (Cdc2 kinase activation) in mixed Sf9 lysates: such lysates also inhibited both Cdc2-A14 and Cdc2-F15 activation
[5]
  32P-labeling in a kinase reaction with affinity purified proteins, SDS-PAGE: both purified Cell Growth Regulatory Protein and Wee1 kinases were capable of phosphorylating wild-type Cdc2 as well as a kinase-deficient Cdc2 mutant (K-), each of which was complexed with cyclin B1
  phosphoamino acid analysis of 32P-labeled Cdc2: phosphorylation occurred only on threonine residues
Monomeric Cdc2, P06493
  32P-labeling in a kinase reaction with monomeric Cdc2 as substrate: Cell Growth Regulatory Protein did not phosphorylate monomeric Cdc2
[6]
  32P-labeling in a kinase reaction with purified proteins: Cell Growth Regulatory Protein failed to phosphorylate Cdk2 that was complexed with either cyclin A or cyclin E
  histone H1 kinase activity in mixed Sf9 lysates, wild-type Cdk2 against Cdk2-AF: an equivalent amount of histone H1 kinase activity was present in wild-type Cdk2 and Cdk2-AF lysates that had been mixed with either cyclin A or cyclin E lysates in the presence of Cell Growth Regulatory Protein
[7]
  32P-labeling in a kinase reaction with affinity purified proteins, SDS-PAGE: both purified Cell Growth Regulatory Protein and Wee1 kinases were capable of phosphorylating wild-type Cdc2 as well as a kinase-deficient Cdc2 mutant (K-), each of which was complexed with cyclin B1
  32P-labeling in a kinase reaction with the Cdc2/cyclin B1 complex reconstituted from monomers: reconstitution of the Cdc2/cyclin B1 complex, by pre-incubating monomeric Cdc2 with monomeric cyclin B1, enabled Cell Growth Regulatory Protein to phosphorylate Cdc2
  histone H1 kinase activity (Cdc2 kinase activation) in mixed Sf9 lysates: a dramatic reduction in Cdc2 kinase activation was observed, similar to that observed for Wee1
  immunoblotting of mixed lysates with phosphotyrosine antibodies: showed that Cdc2 was phosphoryalted on Tyrosine 15 to some extent
[8]
  histone H1 kinase activity in mixed Sf9 lysates: greatly reduced histone H1 kinase activity compared to a mock-treated or Cdc2-AF control lysate
[9]
  32P-labeling in a kinase reaction with purified proteins: Cell Growth Regulatory Protein failed to phosphorylate Cdk2 that was complexed with either cyclin A or cyclin E
  histone H1 kinase activity in mixed Sf9 lysates, wild-type Cdk2 against Cdk2-AF: an equivalent amount of histone H1 kinase activity was present in wild-type Cdk2 and Cdk2-AF lysates that had been mixed with either cyclin A or cyclin E lysates in the presence of Cell Growth Regulatory Protein
